The text below walks through data of the supplement of paper PMC5998384.

In data set [1] the test system is HeLa Kyoto. Kind of data set: solubility in G1/S (NP-40 vs SDS abundance) (log2 ratio); higher = more soluble. The settings on record: cell cycle stage: G1/S.
Data set [2] deals with HeLa Kyoto. The data set is described as follows: solubility change mitosis vs G1/S (difference of NP-40 vs SDS log2 ratios) (log2 ratio difference); higher = more soluble in mitosis.
Data set [3] relates to HeLa Kyoto. The data set is described as follows: thermal stability score vs G1/S (z-score of summed log2 fold changes over temperatures); higher = more thermally stable than in G1/S.
Data set [4] has as its system HeLa Kyoto. Kind of data set: melting temperature (median over replicates), in situ; higher = more thermally stable.
Where [5] appears, read: cell cycle stage: early G1 (4.5 h after nocodazole release).
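Throughout, for melting temperature (median over replicates), in situ: HeLa Kyoto cells synchronized by double thymidine or nocodazole block, proteins quantified by TMT10plex mass spectrometry, three independent biological replicates.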
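Throughout, for solubility change mitosis vs G1/S (difference of NP-40 vs SDS log2 ratios): synchronized HeLa Kyoto cells (double thymidine block for G1/S, nocodazole release for mitosis), protein amounts in NP-40 versus SDS lysates quantified by mass spectrometry, three biological replicates.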
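Throughout, for solubility in G1/S (NP-40 vs SDS abundance): HeLa Kyoto cells arrested at G1/S by double thymidine block, proteins quantified by TMT10plex mass spectrometry in mild NP-40 versus SDS extracts, three biological replicates.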
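Throughout, for thermal stability score vs G1/S (z-score of summed log2 fold changes over temperatures): synchronized HeLa Kyoto cells, proteins quantified by TMT10plex mass spectrometry, three biological replicates, mitosis taken 0.5 h after nocodazole release, G1/S directly after double thymidine block.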

For the sequence “MAPLLGRKPFPLVKPLPGEEPLFTIPHTQEAFRTREEYEARLERYSERIWTCKSTGSSQLTHKEAWEEEQEVAELLKEEFPAWYEKLVLEMVHHNTASLEKLVDTAWLEIMTKYAVGEECDFEVGKEKMLKVKIVKIHPLEKVDEEATEKKSDGACDSPSSDKENSSQIAQDHQKKETVVKEDEGRRESINDRARRSPRKLPTSLKKGERKWAPPKFLPHKYDVKLQNEDKIISNVPADSLIRTERPPNKEIVRYFIRHNALRAGTGENAPWVVEDELVKKYSLPSKFSDFLLDPYKYMTLNPSTKRKNTGSPDRKPSKKSKTDNSSLSSPLNPKLWCHVHLKKSLSGSPLKVKNSKNSKSPEEHLEEMMKMMSPNKLHTNFHIPKKGPPAKKPGKHSDKPLKAKGRSKGILNGQKSTGNSKSPKKGLKTPKTKMKQMTLLDMAKGTQKMTRAPRNSGGTPRTSSKPHKHLPPAALHLIAYYKENKDREDKRSALSCVISKTARLLSSEDRARLPEELRSLVQKRYELLEHKKRWASMSEEQRKEYLKKKREELKKKLKEKAKERREKEMLERLEKQKRYEDQELTGKNLPAFRLVDTPEGLPNTLFGDVAMVVEFLSCYSGLLLPDAQYPITAVSLMEALSADKGGFLYLNRVLVILLQTLLQDEIAEDYGELGMKLSEIPLTLHSVSELVRLCLRRSDVQEESEGSDTDDNKDSAAFEDNEVQDEFLEKLETSEFFELTSEEKLQILTALCHRILMTYSVQDHMETRQQMSAELWKERLAVLKEENDKKRAEKQKRKEMEAKNKENGKVENGLGKTDRKKEIVKFEPQVDTEAEDMISAVKSRRLLAIQAKKEREIQEREMKVKLERQAEEERIRKHKAAAEKAFQEGIAKAKLVMRRTPIGTDRNHNRYWLFSDEVPGLFIEKGWVHDSIDYRFNHHCKDHTVSGDEDYCPRSKKANLGKNASMNTQHGTATEVAVETTTPKQGQNLWFLCDSQKELDELLNCLHPQGIRESQLKERLEKRYQDIIHSIHLARKPNLGLKSCDGNQELLNFLRSDLIEVATRLQKGGLGYVEETSEFEARVISLEKLKDFGECVIALQASVIKKFLQGFMAPKQKRRKLQSEDSAKTEEVDEEKKMVEEAKVASALEKWKTAIREAQTFSRMHVLLGMLDACIKWDMSAENARCKVCRKKGEDDKLILCDECNKAFHLFCLRPALYEVPDGEWQCPACQPATARRNSRGRNYTEESASEDSEDDESDEEEEEEEEEEEEEDYEVAGLRLRPRKTIRGKHSVIPPAARSGRRPGKKPHSTRRSQPKAPPVDDAEVDELVLQTKRSSRRQSLELQKCEEILHKIVKYRFSWPFREPVTRDEAEDYYDVITHPMDFQTVQNKCSCGSYRSVQEFLTDMKQVFTNAEVYNCRGSHVLSCMVKTEQCLVALLHKHLPGHPYVRRKRKKFPDRLAEDEGDSEPEAVGQSRGRRQKK [BAZ1B]”, the “solubility in G1/S (log2)” value in the data set with HeLa Kyoto [1] is -2.14. Further, the “solubility change mitosis (log2)” value in the data set on HeLa Kyoto [2] turned out to be 1.24. In addition, the figures for the thermal stability score with HeLa Kyoto [3] (setting [5]) and in the data set with HeLa Kyoto [3] (cell cycle stage: mitosis) were 1.09 and -0.274, respectively. For the same sequence, the melting temperature in the data set on HeLa Kyoto [4] (cell cycle stage: G1/S) amounted to 50.7 °C; in the data set with HeLa Kyoto [4] (cell cycle stage: mitosis), 51 °C.

“MAPPSTREPRVLSATSATKSDGEMVLPGFPDADSFVKFALGSVVAVTKASGGLPQFGDEYDFYRSFPGFQAFCETQGDRLLQCMSRVMQYHGCRSNIKDRSKVTELEDKFDLLVDANDVILERVGILLDEASGVNKNQQPVLPAGLQVPKTVVSSWNRKAAEYGKKAKSETFRLLHAKNIIRPQLKFREKIDNSNTPFLPKIFIKPNAQKPLPQALSKERRERPQDRPEDLDVPPALADFIHQQRTQQVEQDMFAHPYQYELNHFTPADAVLQKPQPQLYRPIEETPCHFISSLDELVELNEKLLNCQEFAVDLEHHSYRSFLGLTCLMQISTRTEDFIIDTLELRSDMYILNESLTDPAIVKVFHGADSDIEWLQKDFGLYVVNMFDTHQAARLLNLGRHSLDHLLKLYCNVDSNKQYQLADWRIRPLPEEMLSYARDDTHYLLYIYDKMRLEMWERGNGQPVQLQVVWQRSRDICLKKFIKPIFTDESYLELYRKQKKHLNTQQLTAFQLLFAWRDKTARREDESYGYVLPNHMMLKIAEELPKEPQGIIACCNPVPPLVRQQINEMHLLIQQAREMPLLKSEVAAGVKKSGPLPSAERLENVLFGPHDCSHAPPDGYPIIPTSGSVPVQKQASLFPDEKEDNLLGTTCLIATAVITLFNEPSAEDSKKGPLTVAQKKAQNIMESFENPFRMFLPSLGHRAPVSQAAKFDPSTKIYEISNRWKLAQVQVQKDSKEAVKKKAAEQTAAREQAKEACKAAAEQAISVRQQVVLENAAKKRERATSDPRTTEQKQEKKRLKISKKPKDPEPPEKEFTPYDYSQSDFKAFAGNSKSKVSSQFDPNKQTPSGKKCIAAKKIKQSVGNKSMSFPTGKSDRGFRYNWPQR [EXOSC10]”: in the data set on HeLa Kyoto [1], the “solubility in G1/S (log2)” value was -0.517. Besides, in the data set with HeLa Kyoto [2], the “solubility change mitosis (log2)” value stood at 0.289. Besides, the figures for the thermal stability score in the data set on HeLa Kyoto [3] (setting [5]) and in the data set on HeLa Kyoto [3] (cell cycle stage: mitosis) were 4.13 and 7.46, respectively. Further, the melting temperature came to 46.6 °C in the data set with HeLa Kyoto [4] (cell cycle stage: G1/S) and 48.7 °C in the data set with HeLa Kyoto [4] (cell cycle stage: mitosis).

Turning to “MAPPVAERGLKSVVWQKIKATVFDDCKKEGEWKIMLLDEFTTKLLASCCKMTDLLEEGITVVENIYKNREPVRQMKALYFITPTSKSVDCFLHDFASKSENKYKAAYIYFTDFCPDNLFNKIKASCSKSIRRCKEINISFIPHESQVYTLDVPDAFYYCYSPDPGNAKGKDAIMETMADQIVTVCATLDENPGVRYKSKPLDNASKLAQLVEKKLEDYYKIDEKSLIKGKTHSQLLIIDRGFDPVSTVLHELTFQAMAYDLLPIENDTYKYKTDGKEKEAILEEEDDLWVRIRHRHIAVVLEEIPKLMKEISSTKKATEGKTSLSALTQLMKKMPHFRKQITKQVVHLNLAEDCMNKFKLNIEKLCKTEQDLALGTDAEGQKVKDSMRVLLPVLLNKNHDNCDKIRAILLYIFSINGTTEENLDRLIQNVKIENESDMIRNWSYLGVPIVPQSQQGKPLRKDRSAEETFQLSRWTPFIKDIMEDAIDNRLDSKEWPYCSQCPAVWNGSGAVSARQKPRANYLEDRKNGSKLIVFVIGGITYSEVRCAYEVSQAHKSCEVIIGSTHVLTPKKLLDDIKMLNKPKDKVSLIKDE [STXBP3]”, the “solubility in G1/S (log2)” value with HeLa Kyoto [1] was -0.0906. In the data set on HeLa Kyoto [2], the “solubility change mitosis (log2)” value was -0.0474. The thermal stability score in the data set with HeLa Kyoto [3] (setting [5]) is -0.14; with HeLa Kyoto [3] (cell cycle stage: mitosis), 0.708. Also, the melting temperature with HeLa Kyoto [4] (cell cycle stage: G1/S) and in the data set with HeLa Kyoto [4] (cell cycle stage: mitosis) was 49 °C in each case.

Consider “MAPVGVEKKLLLGPNGPAVAAAGDLTSEEEEGQSLWSSILSEVSTRARSKLPSGKNILVFGEDGSGKTTLMTKLQGAEHGKKGRGLEYLYLSVHDEDRDDHTRCNVWILDGDLYHKGLLKFAVSAESLPETLVIFVADMSRPWTVMESLQKWASVLREHIDKMKIPPEKMRELERKFVKDFQDYMEPEEGCQGSPQRRGPLTSGSDEENVALPLGDNVLTHNLGIPVLVVCTKCDAVSVLEKEHDYRDEHLDFIQSHLRRFCLQYGAALIYTSVKEEKNLDLLYKYIVHKTYGFHFTTPALVVEKDAVFIPAGWDNEKKIAILHENFTTVKPEDAYEDFIVKPPVRKLVHDKELAAEDEQVFLMKQQSLLAKQPATPTRASESPARGPSGSPRTQGRGGPASVPSSSPGTSVKKPDPNIKNNAASEGVLASFFNSLLSKKTGSPGSPGAGGVQSTAKKSGQKTVLSNVQEELDRMTRKPDSMVTNSSTENEA [DYNC1LI2]”, for which the “solubility in G1/S (log2)” value in the data set with HeLa Kyoto [1] was 0.247. Besides, the “solubility change mitosis (log2)” value with HeLa Kyoto [2] amounted to 0.046. The thermal stability score is -0.131 in the data set with HeLa Kyoto [3] (setting [5]) and 0.16 in the data set on HeLa Kyoto [3] (cell cycle stage: mitosis). The melting temperature is 50.6 °C with HeLa Kyoto [4] (cell cycle stage: G1/S) and 51.5 °C with HeLa Kyoto [4] (cell cycle stage: mitosis).
